Values quoted from earlier work, collected in publication PMC1079850.

Biological target: Tsr (Escherichia coli) (UniProt P02942)
Test: given as Ka

CheR, sequence (P07364 whole entry): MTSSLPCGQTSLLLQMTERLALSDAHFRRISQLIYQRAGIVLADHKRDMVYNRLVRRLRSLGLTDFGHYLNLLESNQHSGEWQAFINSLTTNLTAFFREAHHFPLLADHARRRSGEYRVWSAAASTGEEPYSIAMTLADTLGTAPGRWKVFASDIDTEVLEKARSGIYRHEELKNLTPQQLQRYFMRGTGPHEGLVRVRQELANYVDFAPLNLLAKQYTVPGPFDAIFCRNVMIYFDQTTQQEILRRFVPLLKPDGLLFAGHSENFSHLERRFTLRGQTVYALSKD
Tsr (Escherichia coli), sequence (P02942 whole entry): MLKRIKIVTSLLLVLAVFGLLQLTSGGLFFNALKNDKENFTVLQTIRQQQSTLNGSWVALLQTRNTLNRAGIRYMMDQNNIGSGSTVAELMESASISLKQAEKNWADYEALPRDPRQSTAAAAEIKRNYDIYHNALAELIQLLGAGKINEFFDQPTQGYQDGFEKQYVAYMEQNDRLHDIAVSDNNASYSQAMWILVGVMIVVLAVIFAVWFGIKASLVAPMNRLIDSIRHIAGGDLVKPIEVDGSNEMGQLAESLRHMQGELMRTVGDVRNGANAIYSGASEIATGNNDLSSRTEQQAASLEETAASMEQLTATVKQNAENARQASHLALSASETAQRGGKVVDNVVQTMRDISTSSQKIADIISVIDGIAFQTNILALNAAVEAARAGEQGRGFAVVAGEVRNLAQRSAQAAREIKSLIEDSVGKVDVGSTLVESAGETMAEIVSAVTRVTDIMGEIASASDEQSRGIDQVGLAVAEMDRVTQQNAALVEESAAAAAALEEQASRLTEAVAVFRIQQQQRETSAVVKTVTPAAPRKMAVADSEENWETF

Kd: 2500 nM
Substance: CheR (from UniProt P07364)
